Measurements: patent publication US20140161732A1
Bridge positions count the residues as written; N and C are the ends. Side chains are listed from the residue outwards. * marks the point of attachment. Biotin = O=C1N[C@H]2[C@H](CS[C@H]2CCCCC(=O)*)N1; AEEA = NCCOCCOCC(=O)O

Key:
[1] = target: T1, KDR expressed on transiently transfected 293H cells (human), P35968; experiment: competition with 125I-VEGF on KDR-transfected 293H cells (mock subtracted), peptide at 30 µM; settings: remark: other sources report otherwise
[2] = target: T1, KDR expressed on transiently …; experiment: competition with 125I-VEGF on KDR-transfected 293H cells (mock subtracted), peptide at 0.3 µM; settings: remark: other sources report otherwise

T1 sequence (P35968 20-1356): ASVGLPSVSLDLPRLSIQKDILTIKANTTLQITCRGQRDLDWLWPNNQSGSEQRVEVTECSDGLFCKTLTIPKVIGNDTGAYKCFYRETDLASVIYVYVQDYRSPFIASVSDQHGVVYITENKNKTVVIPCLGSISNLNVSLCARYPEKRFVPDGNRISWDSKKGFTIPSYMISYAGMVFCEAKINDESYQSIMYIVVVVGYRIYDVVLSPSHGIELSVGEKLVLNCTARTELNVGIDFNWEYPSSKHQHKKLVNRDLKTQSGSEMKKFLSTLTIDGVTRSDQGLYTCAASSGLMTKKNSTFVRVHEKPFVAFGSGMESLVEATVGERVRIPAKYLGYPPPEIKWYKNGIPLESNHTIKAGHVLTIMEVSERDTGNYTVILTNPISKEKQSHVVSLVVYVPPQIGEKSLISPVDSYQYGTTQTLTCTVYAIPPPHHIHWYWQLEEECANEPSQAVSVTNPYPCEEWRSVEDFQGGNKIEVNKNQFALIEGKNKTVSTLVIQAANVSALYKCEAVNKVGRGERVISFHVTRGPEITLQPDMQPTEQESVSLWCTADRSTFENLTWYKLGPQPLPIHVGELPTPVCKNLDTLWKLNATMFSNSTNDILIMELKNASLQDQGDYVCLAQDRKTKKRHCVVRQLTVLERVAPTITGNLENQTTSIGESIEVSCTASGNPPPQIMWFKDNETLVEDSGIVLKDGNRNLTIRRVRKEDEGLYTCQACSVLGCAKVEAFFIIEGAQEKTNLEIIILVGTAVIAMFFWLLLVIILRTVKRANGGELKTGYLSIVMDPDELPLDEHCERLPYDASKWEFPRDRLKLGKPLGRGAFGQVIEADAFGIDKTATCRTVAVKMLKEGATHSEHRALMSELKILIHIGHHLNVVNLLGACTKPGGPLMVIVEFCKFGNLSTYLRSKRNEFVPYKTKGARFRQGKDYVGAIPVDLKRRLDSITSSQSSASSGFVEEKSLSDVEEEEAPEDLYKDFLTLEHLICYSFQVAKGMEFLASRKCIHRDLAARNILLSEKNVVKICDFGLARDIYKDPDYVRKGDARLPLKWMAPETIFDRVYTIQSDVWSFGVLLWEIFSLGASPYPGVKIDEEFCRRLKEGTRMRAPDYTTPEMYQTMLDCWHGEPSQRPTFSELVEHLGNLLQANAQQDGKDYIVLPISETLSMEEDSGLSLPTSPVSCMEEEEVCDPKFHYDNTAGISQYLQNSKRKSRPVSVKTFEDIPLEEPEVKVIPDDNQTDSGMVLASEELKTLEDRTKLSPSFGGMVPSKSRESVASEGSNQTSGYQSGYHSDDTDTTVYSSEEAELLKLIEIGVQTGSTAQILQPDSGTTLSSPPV

Binder: Ac-AGPKWCEEDWYYCMITGTGGGK([AEEA-AEEA-Biotin])-NH2 (disulfide 6-13 (inferred)) [biotinylated SEQ ID NO:264 with a JJ spacer]
- % inhibition of 125I-labeled VEGF binding [1]: 48%
- % inhibition of 125I-labeled VEGF binding [2]: 24.4%
